Primed or numbered codes have the meaning given here. Ends that are not written are not given here. bbDTPA = DTPA chelating ligand bonded through a carbon of its ethylene backbone; bbDTPA″ = DTPA chelating ligand bound through a backbone ethylene carbon
What was measured:
[1] = Aggregation / gel formation behaviour in aqueous solution; assay type: physicochemical
Method: EP1272L (0.0842 g) was suspended in 2 mL water. To this were added 160 μL 1N NaOH, bringing the pH of the solution to 7.5. The volume was taken to 5 mL with addition of water and the solution gently swirled until all solids were dissolved. The chelatables were monitored by titration using xylenol orange as an indicator for free gadolinium. Following titration, 86.4 μL of 241 mM stock solution of GdCl3 was added to the solution with stirring followed by 60 μL 1N NaOH. Low mass impurities were removed from the solution by centrifugation over a 0.02 μm anapore membrane (Vecta-Spin). This was followed by resuspension in 20 mL of water and filtration over a 5 μm (Durapore, low protein binding) syringe filter frit. At concentrations greater than 0.5 mM, EP1272L became a non-flowing viscous gel.
As described in Examples 1-8, a self-assembling peptide having the sequence AEAEAKAKAEAEAKAK (SEQ ID NO: 1) was chemically modified to include a metal binding moiety (an organic chelating ligand) via a glycine linker to the N-terminus of the peptide; see EP1272L in FIG. 3. Modified self-assembling peptides having the same metal binding moiety at the N-terminus and further including acidic moieties at the C-terminus of the peptide were also made (see EP 1593L and EP1594L in FIG. 3).

[2] = Relaxivity measurements in PBS (T1, inversion recovery); assay type: physicochemical
Source text: First, solutions of EP 1272L (FW=2,243 Da) were concentrated and purified by centrifugation in a filter device with a nominal molecular weight limit of 300,000 Da. The formation of high molecular weight aggregates allowed EP1272L to be retained by the filter device. […] Third, SEC-LS column retention and light scattering measurements of EP1272L were consistent with a large species having a mass distribution of 4×10^6 to 13×10^6 Da, and a hydrodynamic radius in the range of 155 nm to 210 nm.
Relaxivity measurements were made in PBS. A relaxivity titration consisting of sequential additions of EP1272L (complexed to Gd(III)) to a tube containing approximately 0.6 mL of PBS was performed. Following each addition of EP1272, the sample was thoroughly mixed by manual agitation and the temperature allowed to equilibrate for 10 minutes at 37±2° C. prior to T1 determination. The longitudinal (T1) relaxation time was determined by use of the inversion recovery pulse sequence and fitting the intensity data to an exponential decay. Measurements at 20 MHz were made using a Bruker Minispec PC 120/125/Vts nuclear magnetic resonance process analyzer. The temperature was regulated with a Haake D8-GH circulating bath at 37±2° C. Measurements at 64.5 MHz were made using a Varian XL300 adjusted to a field strength of 1.5 T with a broad band variable temperature probe tuned to 64.5 MHz. The relaxivity of EP1272 at 0.5 T and 1.5 T were 24.9 mM^−1s^−1 and 21.0 mM^−1s^−1 respectively. The relaxivity of EP1593 at 0.5 T was assessed in a similar manner and was 19.9 mM^−1s^−1. The relaxivity of EP1594 was assessed in a similar manner at 0.5 T and was 22.0 mM^−1s^−1.

[3] = target: streptavidin magnetic beads (Streptomyces avidinii, UniProt P22629); test: Avidin affinity assay: capture by streptavidin magnetic beads, quantified by gadolinium ICP; assay type: binding; details: capture by streptavidin-coated beads, FIG. 8
Method: Two self-assembling peptides comprising target binding moieties were prepared (FIG. 7). EP1595 contained a C-terminal biotin target binding moiety; EP 1596 contained a C-terminal aromatic target binding moiety (phenylundecane).
EP1272L aggregates were targeted to avidin by incorporation of a biotinylated peptide (e.g., an assembling peptide containing a target binding moiety (EP1595)) into the aggregates. To 70 μL of a 1.54 mM stock solution of EP1272L was added varying amounts of EP1595. The pH was then reduced to 1.5 by addition of 1N HCl to induce mixing of the peptides. The solution was neutralized by addition of 1N NaOH and the volume brought to 500 μL with addition of water. Aggregates containing 20% biotinylated peptide (5:1 ratio of EP1272 to EP1595), 4% biotinylated-peptide (25:1 ratio), and 0.5% biotinylated peptide (200:1) were prepared.
EP1272L aggregates containing the phenylundecane substituted peptide, EP1596, in a 10:1 ratio were prepared as described above.
The three EP1595/EP1272 formulations, one EP1596/EP1272 formulation, and an EP1272 formulation were assayed for affinity to streptavidin magnetic beads. Each sample was diluted so as to maintain a constant ratio of biotinylated peptide and streptavidin binding sites in the assay. Solutions without biotin were treated as though they contained 0.5% EP1595. […] The extent of capture was quantified by gadolinium ICP.

Sequence of streptavidin magnetic beads (P22629 25-183): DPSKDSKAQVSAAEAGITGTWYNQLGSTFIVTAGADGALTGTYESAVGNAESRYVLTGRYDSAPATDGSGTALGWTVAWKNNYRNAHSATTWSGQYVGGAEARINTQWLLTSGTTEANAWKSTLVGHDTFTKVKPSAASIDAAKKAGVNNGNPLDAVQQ

| Substance | aggregation behaviour (macroscopic membrane formation) [1] | relaxivity ([2]; 0.5 T (20 MHz), 37±2° C.) | further results |
| --- | --- | --- | --- |
| AEAEAKAKAEAEAKAK (Targeted aggregate peptide) [reference compound] | tended to form macroscopic membranes |  |  |
| EP1272: EP1272L complexed to Gd(III) (GAEAEAKAKAEAEAKAK) |  | 24.9 mM⁻¹ s⁻¹ | relaxivity ([2]; 1.5 T (64.5 MHz), 37±2° C.): 21.0 mM⁻¹ s⁻¹ |
| EP1272L: self-assembling peptide AEAEAKAKAEAEAKAK (SEQ ID NO: 1) with bbDTPA chelating ligand via a glycine linker at the N-terminus (bbDTPA-GAEAEAKAKAEAEAKAK) | tended to aggregate, but did not form macroscopic membranes |  | relaxivity ([2]; 0.47 T): 25 mM⁻¹ s⁻¹; relaxivity ([2]; 1.5 T (64.5 MHz), 37±2° C.): 21 mM⁻¹ s⁻¹; affinity for streptavidin beads [3]: substantially less affinity for streptavidin beads; concentration above which a non-flowing viscous gel forms ([1]; aqueous solution after complexing with Gd(III)): greater than 0.5 mM |
| EP1593: EP1593L complexed to Gd(III) (GAEAEAKAKAEAEAKAK) |  | 19.9 mM⁻¹ s⁻¹ |  |
| EP1593L: self-assembling peptide having a covalently attached metal binding moiety (bbDTPA) and an acidic group at the C-terminus ({bbDTPA″}-GAEAEAKAKAEAEAKAK; also: acidic group at C-terminus, not given here) | tended to aggregate, but did not form macroscopic membranes |  |  |
| EP1594: EP1594L complexed to Gd(III) (GAEAEAKAKAEAEAKAK) |  | 22.0 mM⁻¹ s⁻¹ |  |
| EP1594L: self-assembling peptide having a covalently attached metal binding moiety (bbDTPA) and an acidic group at the C-terminus ({bbDTPA″}-GAEAEAKAKAEAEAKAK; also: acidic group at C-terminus, not given here) | tended to aggregate, but did not form macroscopic membranes |  |  |
